Results: the supplement of paper PMC10567573

B1: RSPH3 (parent)
chain: QRLEEQERRHREEKERRKKQQWEI

Variants of: B1
Assay: protein stability index of a GFP-peptide fusion (GPS, HEK-293T) (PSI 1-6); higher = more stable
Conditions: c terminus: a fixed tail appended
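Further: lentivirally expressed fusions sorted by FACS into six bins by GFP to DsRed ratio, PSI derived from sequencing read proportions per bin multiplied by bin number.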

Row | Variant | protein stability index
1 | QRLEEQERRHREEKERQKKQQWEI [R17Q] | 4.82
2 | QRLEEQERRHREEKERKKKQQWEI [R17K] | 4.92
3 | QRLEEQERRHREEKERCKKQQWEI [R17C] | 4.59
4 | QRLEEQERRHREEKERMKKQQWEI [R17M] | 4.77
5 | QRLEEQERRHREEKERVKKQQWEI [R17V] | 4.56
6 | QRLEEQERRHREEKERLKKQQWEI [R17L] | 5.03
7 | QRLEEQERRHREEKERHKKQQWEI [R17H] | 4.53
8 | QRLEEQERRHREEKERNKKQQWEI [R17N] | 4.76
9 | QRLEEQERRHREEKERDKKQQWEI [R17D] | 4.42
10 | QRLEEQERRHREEKERTKKQQWEI [R17T] | 4.62
11 | QRLEEQERRHREEKERIKKQQWEI [R17I] | 3.87
12 | QRLEEQERRHREEKERGKKQQWEI [R17G] | 4.83
13 | QRLEEQERRHREEKERFKKQQWEI [R17F] | 4.41
14 | QRLEEQERRHREEKERWKKQQWEI [R17W] | 4.02
15 | QRLEEQERRHREEKEREKKQQWEI [R17E] | 5.3
16 | QRLEEQERRHREEKERYKKQQWEI [R17Y] | 4.96
17 | QRLEEQERRHREEKERPKKQQWEI [R17P] | 4.31
18 | QRLEEQERRHREEKERAKKQQWEI [R17A] | 4.94
19 | QRLEEQERRHREEKERSKKQQWEI [R17S] | 4.72
20 | QRLEEQERRHREEKERRGKQQWEI [K18G] | 4.71
21 | QRLEEQERRHREEKERRCKQQWEI [K18C] | 4.32
22 | QRLEEQERRHREEKERRTKQQWEI [K18T] | 4.68
23 | QRLEEQERRHREEKERRVKQQWEI [K18V] | 4.18
24 | QRLEEQERRHREEKERRNKQQWEI [K18N] | 4.28

Row | Variant | protein stability index
25 | QRLEEQERRHREEKERRRKQQWEI [K18R] | 3.87
26 | QRLEEQERRHREEKERRLKQQWEI [K18L] | 4.27
27 | QRLEEQERRHREEKERRDKQQWEI [K18D] | 4.59
28 | QRLEEQERRHREEKERRHKQQWEI [K18H] | 4.56
29 | QRLEEQERRHREEKERREKQQWEI [K18E] | 4.6
30 | QRLEEQERRHREEKERRQKQQWEI [K18Q] | 4.83
31 | QRLEEQERRHREEKERRAKQQWEI [K18A] | 4.46
32 | QRLEEQERRHREEKERRMKQQWEI [K18M] | 4.6
33 | QRLEEQERRHREEKERRSKQQWEI [K18S] | 4.49
34 | QRLEEQERRHREEKERRYKQQWEI [K18Y] | 3.59
35 | QRLEEQERRHREEKERRIKQQWEI [K18I] | 4.94
36 | QRLEEQERRHREEKERRFKQQWEI [K18F] | 4.43
37 | QRLEEQERRHREEKERRWKQQWEI [K18W] | 4.03
38 | QRLEEQERRHREEKERRPKQQWEI [K18P] | 4.72
39 | QRLEEQERRHREEKENRKKQQWEI [R16N] | 4.82
40 | QRLEEQERRHREEKECRKKQQWEI [R16C] | 5.12
41 | QRLEEQERRHREEKEIRKKQQWEI [R16I] | 5
42 | QRLEEQERRHREEKEARKKQQWEI [R16A] | 4.5
43 | QRLEEQERRHREEKEPRKKQQWEI [R16P] | 4.97
44 | QRLEEQERRHREEKEYRKKQQWEI [R16Y] | 4.74
45 | QRLEEQERRHREEKEVRKKQQWEI [R16V] | 5.18
46 | QRLEEQERRHREEKEFRKKQQWEI [R16F] | 4.06
47 | QRLEEQERRHREEKEQRKKQQWEI [R16Q] | 4.75
48 | QRLEEQERRHREEKESRKKQQWEI [R16S] | 4.9

Row | Variant | protein stability index
49 | QRLEEQERRHREEKELRKKQQWEI [R16L] | 4.67
50 | QRLEEQERRHREEKEHRKKQQWEI [R16H] | 4.77
51 | QRLEEQERRHREEKEERKKQQWEI [R16E] | 5.23
52 | QRLEEQERRHREEKEDRKKQQWEI [R16D] | 5.37
53 | QRLEEQERRHREEKEWRKKQQWEI [R16W] | 4.02
54 | QRLEEQERRHREEKEMRKKQQWEI [R16M] | 5.04
55 | QRLEEQERRHREEKEGRKKQQWEI [R16G] | 4.84
56 | QRLEEQERRHREEKETRKKQQWEI [R16T] | 5.11
57 | QRLEEQERRHREEKEKRKKQQWEI [R16K] | 4.57
58 | QRLEEQERRHREEKFRRKKQQWEI [E15F] | 3.92
59 | QRLEEQERRHREEKLRRKKQQWEI [E15L] | 4.63
60 | QRLEEQERRHREEKWRRKKQQWEI [E15W] | 3.18
61 | QRLEEQERRHREEKIRRKKQQWEI [E15I] | 4.09
62 | QRLEEQERRHREEKRRRKKQQWEI [E15R] | 3.75
63 | QRLEEQERRHREEKTRRKKQQWEI [E15T] | 4.7
64 | QRLEEQERRHREEKQRRKKQQWEI [E15Q] | 4.85
65 | QRLEEQERRHREEKKRRKKQQWEI [E15K] | 4.74
66 | QRLEEQERRHREEKYRRKKQQWEI [E15Y] | 3.09
67 | QRLEEQERRHREEKSRRKKQQWEI [E15S] | 4.58
68 | QRLEEQERRHREEKNRRKKQQWEI [E15N] | 5.12
69 | QRLEEQERRHREEKPRRKKQQWEI [E15P] | 3.62
70 | QRLEEQERRHREEKCRRKKQQWEI [E15C] | 3.74
71 | QRLEEQERRHREEKHRRKKQQWEI [E15H] | 3.91
72 | QRLEEQERRHREEKARRKKQQWEI [E15A] | 4.44

Row | Variant | protein stability index
73 | QRLEEQERRHREEKDRRKKQQWEI [E15D] | 4.68
74 | QRLEEQERRHREEKGRRKKQQWEI [E15G] | 4.36
75 | QRLEEQERRHREEKMRRKKQQWEI [E15M] | 4.02
76 | QRLEEQERRHREEKVRRKKQQWEI [E15V] | 4.14
77 | QRLEEQERRHREEKERRKCQQWEI [K19C] | 4.9
78 | QRLEEQERRHREEMERRKKQQWEI [K14M] | 4.25
79 | QRLEEQERRHREEPERRKKQQWEI [K14P] | 4.55
80 | QRLEEQERRHREERERRKKQQWEI [K14R] | 4.15
81 | QRLEEQERRHREEIERRKKQQWEI [K14I] | 3.76
82 | QRLEEQERRHREEYERRKKQQWEI [K14Y] | 4.34
83 | QRLEEQERRHREEWERRKKQQWEI [K14W] | 4.45
84 | QRLEEQERRHREEDERRKKQQWEI [K14D] | 4.65
85 | QRLEEQERRHREEGERRKKQQWEI [K14G] | 5.25
86 | QRLEEQERRHREESERRKKQQWEI [K14S] | 3.26
87 | QRLEEQERRHREEQERRKKQQWEI [K14Q] | 4.26
88 | QRLEEQERRHREENERRKKQQWEI [K14N] | 4.87
89 | QRLEEQERRHREEFERRKKQQWEI [K14F] | 4.69
90 | QRLEEQERRHREEEERRKKQQWEI [K14E] | 5.13
91 | QRLEEQERRHREETERRKKQQWEI [K14T] | 4.08
92 | QRLEEQERRHREEHERRKKQQWEI [K14H] | 4.73
93 | QRLEEQERRHREELERRKKQQWEI [K14L] | 3.94
94 | QRLEEQERRHREEVERRKKQQWEI [K14V] | 4.72
